Laboratory results reported in paper PMC10950542 (Nature structural & molecular biology, 2024).
Like-named read-outs stand apart in the source and are kept apart here.

B2: T4 bacteriophage sliding clamp (gp45) (natural protein)
chain: MKLSKDTTALLKNFATINSGIMLKSGQFIMTRAVNGTTYAEANISDVIDFDVAIYDLNGFLGILSLVNDDAEISQSEDGNIKIADARSTIFWPAADPSTVVAPNKPIPFPVASAVTEIKAEDLQQLLRVSRGLQIDTIAITVKEGKIVINGFNKVEDSALTRVKYSLTLGDYDGENTFNFIINMANMKMQPGNYKLLLWAKGKQGAAKFEGEHANYVVALEADSTHDF
B3: T4 bacteriophage clamp-loader ATPase subunit gp44 (wild type) (natural protein)
chain: MITVNEKEHILEQKYRPSTIDECILPAFDKETFKSITSKGKIPHIILHSPSPGTGKTTVAKALCHDVNADMMFVNGSDCKIDFVRGPLTNFASAASFDGRQKVIVIDEFDRSGLAESQRHLRSFMEAYSSNCSIIITANNIDGIIKPLQSRCRVITFGQPTDEDKIEMMKQMIRRLTEICKHEGIAIADMKVVAALVKKNFPDFRKTIGELDSYSSKGVLDAGILSLVTNDRGAIDDVLESLKNKDVKQLRALAPKYAADYSWFVGKLAEEIYSRVTPQSIIRMYEIVGENNQYHGIAANTELHLAYLFIQLACEMQWK
B4: T4 bacteriophage clamp-loader ATPase subunit gp44 D110C (natural protein)
chain: MITVNEKEHILEQKYRPSTIDECILPAFDKETFKSITSKGKIPHIILHSPSPGTGKTTVAKALCHDVNADMMFVNGSDCKIDFVRGPLTNFASAASFDGRQKVIVIDEFCRSGLAESQRHLRSFMEAYSSNCSIIITANNIDGIIKPLQSRCRVITFGQPTDEDKIEMMKQMIRRLTEICKHEGIAIADMKVVAALVKKNFPDFRKTIGELDSYSSKGVLDAGILSLVTNDRGAIDDVLESLKNKDVKQLRALAPKYAADYSWFVGKLAEEIYSRVTPQSIIRMYEIVGENNQYHGIAANTELHLAYLFIQLACEMQWK

Key:
[1] = molecular target: T1, T4 clamp loader (gp44/gp62), wild type;T4 sliding clamp gp45 (bacteriophage T4;bacteriophage T4, UniProt P04526;P04527;P04525 1-319;1-187;1-228, |); test: fluorescence anisotropy
T1 sequence 1: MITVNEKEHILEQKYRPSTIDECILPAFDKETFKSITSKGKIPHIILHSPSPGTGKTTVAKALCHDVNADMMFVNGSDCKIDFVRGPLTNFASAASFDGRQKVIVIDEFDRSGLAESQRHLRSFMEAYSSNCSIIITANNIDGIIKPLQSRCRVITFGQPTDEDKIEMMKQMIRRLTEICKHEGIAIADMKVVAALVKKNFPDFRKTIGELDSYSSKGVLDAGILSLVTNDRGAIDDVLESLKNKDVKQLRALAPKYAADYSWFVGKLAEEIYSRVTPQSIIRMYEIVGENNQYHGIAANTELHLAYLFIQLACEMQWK
T1 sequence 2: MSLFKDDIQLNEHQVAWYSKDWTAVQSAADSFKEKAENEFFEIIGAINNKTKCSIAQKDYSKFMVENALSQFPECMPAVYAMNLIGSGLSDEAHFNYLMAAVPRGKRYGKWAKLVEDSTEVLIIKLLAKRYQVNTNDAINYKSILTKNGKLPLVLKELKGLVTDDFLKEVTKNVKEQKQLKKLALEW
T1 sequence 3: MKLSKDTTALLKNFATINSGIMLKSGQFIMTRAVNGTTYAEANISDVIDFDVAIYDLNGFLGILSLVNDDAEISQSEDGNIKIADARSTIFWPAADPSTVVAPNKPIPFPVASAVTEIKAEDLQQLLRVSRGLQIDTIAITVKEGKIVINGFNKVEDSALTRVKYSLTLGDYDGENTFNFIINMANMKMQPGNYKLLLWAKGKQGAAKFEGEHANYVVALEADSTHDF

[2] = molecular target: T2, T4 clamp loader D110C/G143R;T4 sliding clamp gp45 (bacteriophage T4;bacteriophage T4, UniProt P04526;P04527;P04525 1-319;1-187;1-228, D110C;G143R|); test: fluorescence anisotropy
T2 sequence 1: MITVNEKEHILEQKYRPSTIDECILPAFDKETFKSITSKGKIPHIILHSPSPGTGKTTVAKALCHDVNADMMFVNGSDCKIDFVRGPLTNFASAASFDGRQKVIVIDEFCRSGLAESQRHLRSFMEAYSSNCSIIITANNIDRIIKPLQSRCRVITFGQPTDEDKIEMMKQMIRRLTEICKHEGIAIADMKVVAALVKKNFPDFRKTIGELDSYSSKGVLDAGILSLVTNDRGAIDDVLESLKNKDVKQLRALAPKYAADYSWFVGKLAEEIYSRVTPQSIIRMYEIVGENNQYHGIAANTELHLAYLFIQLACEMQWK
T2 sequence 2: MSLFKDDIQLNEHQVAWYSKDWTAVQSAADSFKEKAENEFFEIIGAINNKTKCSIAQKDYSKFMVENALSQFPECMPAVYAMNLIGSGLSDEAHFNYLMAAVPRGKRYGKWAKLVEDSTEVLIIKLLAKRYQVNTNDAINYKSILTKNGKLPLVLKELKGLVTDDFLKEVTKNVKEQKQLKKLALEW
T2 sequence 3: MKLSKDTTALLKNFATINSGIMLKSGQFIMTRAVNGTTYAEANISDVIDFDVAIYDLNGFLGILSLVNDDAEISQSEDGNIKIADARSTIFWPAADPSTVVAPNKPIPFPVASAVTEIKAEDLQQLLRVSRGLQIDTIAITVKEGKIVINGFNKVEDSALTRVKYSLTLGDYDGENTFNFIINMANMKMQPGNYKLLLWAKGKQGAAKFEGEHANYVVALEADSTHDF

[3] = molecular target: T3, T4 clamp loader D110C/P50K (P50K*);T4 sliding clamp gp45 (bacteriophage T4;bacteriophage T4, UniProt P04526;P04527;P04525 1-319;1-187;1-228, P50K;D110C|); test: fluorescence anisotropy
T3 sequence 1: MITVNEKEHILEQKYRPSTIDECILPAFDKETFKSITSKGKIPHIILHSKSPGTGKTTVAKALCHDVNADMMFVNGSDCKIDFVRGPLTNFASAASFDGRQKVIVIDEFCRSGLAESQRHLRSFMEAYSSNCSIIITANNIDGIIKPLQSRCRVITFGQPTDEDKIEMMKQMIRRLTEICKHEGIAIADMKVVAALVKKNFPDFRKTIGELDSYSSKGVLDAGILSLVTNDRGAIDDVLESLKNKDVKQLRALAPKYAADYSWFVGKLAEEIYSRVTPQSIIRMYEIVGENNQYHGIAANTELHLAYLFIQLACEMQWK
T3 sequence 2: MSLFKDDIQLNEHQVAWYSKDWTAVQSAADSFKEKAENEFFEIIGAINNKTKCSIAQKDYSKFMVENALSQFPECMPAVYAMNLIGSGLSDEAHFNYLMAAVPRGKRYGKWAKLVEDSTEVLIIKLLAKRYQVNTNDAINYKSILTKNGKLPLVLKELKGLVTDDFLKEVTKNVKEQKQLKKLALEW
T3 sequence 3: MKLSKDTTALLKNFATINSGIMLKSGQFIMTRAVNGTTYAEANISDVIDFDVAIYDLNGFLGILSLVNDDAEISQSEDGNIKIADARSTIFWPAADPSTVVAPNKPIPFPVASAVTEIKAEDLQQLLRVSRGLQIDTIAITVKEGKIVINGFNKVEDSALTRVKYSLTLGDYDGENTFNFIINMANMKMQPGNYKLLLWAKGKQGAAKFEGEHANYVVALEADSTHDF

[4] = molecular target: the molecule itself; test: crystal structure
[5] = molecular target: the molecule itself; test: crystal structure; remark: listed apart in the source
[6] = molecular target: B3; test: cryo-EM structure
[7] = molecular target: B2; test: cryo-EM structure
[8] = molecular target: B4; test: crystal structure

B1: TAMRA primer-template DNA (dsDNA)
DNA 1: TTTTTTTTTTTTATGTACTCGTAGTGTCTG
DNA 2: GCAGACACTACGAGTACATA
With B1 the Kd [1] was ~40 nM, the binding result [2] was “binds” and the binding result [3] was “binds”.

B2: binds [4].

B3: binds [5].

B4: binds [4].

B5: T4 bacteriophage clamp-loader clasp subunit gp62 (natural protein)
chain: MSLFKDDIQLNEHQVAWYSKDWTAVQSAADSFKEKAENEFFEIIGAINNKTKCSIAQKDYSKFMVENALSQFPECMPAVYAMNLIGSGLSDEAHFNYLMAAVPRGKRYGKWAKLVEDSTEVLIIKLLAKRYQVNTNDAINYKSILTKNGKLPLVLKELKGLVTDDFLKEVTKNVKEQKQLKKLALEW
B5: binds [6]; binds [7]; binds [8].
